From the supplement of paper PMC11865577

What was measured:
Assay in all cases: pull-down binding Z-score (relative to library population); higher = stronger binding
Conditions in all cases: RNA library: Library-2
[1] = test system: TO-3-N3 (biotin conjugate)
Procedure, shortened: (§1)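 Streptavidin beads bearing 100 pmol of a biotin-conjugated small molecule were incubated for 60 min at 25 °C with 1 μg of heat-folded, Cy5- or Cy3-end-labelled RNA library in phosphate/NaCl/KCl buffer. Hot SDS eluted the RNA that stayed bound after three washes, and this RNA was hybridised for 20 h at 55.5 °C to a DNA barcode microarray. Binding was expressed as a Z-score against the library mean and standard deviation, after subtraction of a beads-only signal and trimmed averaging of barcoded replicate probes.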

[2] = test system: TO-3-N3-2 (biotin conjugate)
Procedure, shortened: as §1

TO-N3 (biotin conjugate) = test system: TO-N3 (biotin conjugate)
Procedure, shortened: as §1

[3] = test system: TO-N3-2 (biotin conjugate)
Procedure, shortened: as §1

Sequence	pull-down binding Z-score [1]	pull-down binding Z-score [2]	pull-down binding Z-score (TO-N3 (biotin conjugate))	pull-down binding Z-score [3]
AUGAUGUUUCUUUUUUAGCACAU	-0.696	-0.427	-1.09	-1.28
GUUAAUGCCUAUAUUAACCUUGACCAGGGCUUUAAC	0.238	-0.198	-0.0902	-0.216
GCAGUGGCUAACUAACAUCUUUGGCACUGU	-0.125	0.0264	-0.244	-0.175
GGUUUGUUGCC [IAV_invivo_PB1_2_Motif_26+IAV_invivo_PB1_2_Motif_26]	0.00909	-0.261	-0.146	-0.374
GGCGUAAGUCUGAUACUUACCUG [U1snRNP5ss-10]	0.212	0.0886	0.668	1.08
GGGAAUAUAAUCUC [IAV_invivo_NA_6_Motif_2+IAV_invivo_NA_6_Motif_2]	1.52	0.038	1.33	-0.715
CCAGUAUCUGAAUUACUUACACCACUGG [SHAPE_invivo_SARS-CoV-2_Motif_58]	0.91	0.119	0.688	-0.0924
UAGUACAACAGGAGUCACCUUUUGUUAUGAUGUCAGCACCACCUGCUCAGUAUGAACUUAAGCAUGGUACAUUUACUUGUGCUA	-0.521	-0.518	-0.168	-0.0314
CCAUUCUUCGUAAGGGUGG [DMSMaPseq_invitro_SARS-CoV-2_Motif_28]	0.0314	-0.245	-0.198	-0.66
CAUGUGUUGGUAGCGAUAAUGUUACUGACUUUAAUG	-0.663	-0.614	-0.995	-1.01
CUUUAGUAAUUACCUAAAGAGACGUGUAGUCUUUAAUGGUGUUUCCUUUAG	-0.924	-0.575	-1.09	-1.17
UGGGGAUCACAACUCA [IAV_invivo_PB1_2_Motif_11+IAV_invivo_PB1_2_Motif_11]	0.479	-0.0635	0.158	-0.317
CCACGCUCGUUCCGACACCGGAACGGCACUCGACACCGAGUGCAGCGUGG [3-way model-3_NoName]	1.17	1.41	1.51	1.93
AAGGUACAGCAGAUACUUACCUG [U1snRNP5ss-22]	-0.32	0.198	-0.213	0.0449
UAAUUAUAAAUUACCAGAUGAUUUUACAGGCUGCGUUAUAGCUUGGAAUUCUAACAAUCUUGAUUCUAAGGUUGGUGGUAAUUAUAAUUA	-0.486	0.371	-0.838	-0.713
UGUCUUUCGAUCAAAACCUGGAUUAUCAAAUAGGAUACAUCUGCAGUGGGGUUUUCGGUGACAACCCGCGUCCCGAAGAUGGAACAGGCA	-0.887	-0.424	-0.552	0.432
ACAAGAUGAUAAGAAAAUCAAAGCUUGU	-0.879	-0.459	-1.1	-0.969
AACUUCUUAAGAGUGCUUAUGAAAAUUUUAAUCAGCACGAAGUU	0.425	0.972	-0.246	-0.771
CUAUUCAAACAAUUGUUGAGGUUCAACCUCAAUUAGAGAUGGAACUUACACCAGUUGUUCAGACUAUUGAAGUGAAUAGUUUUAG [SHAPE_invivo_SARS-CoV-2_Multi_36_ComplexLevel_1]	-0.49	-0.292	-0.421	-0.461
GCGCUGCCAGAAACUGGCGGAGCGC [bulge-GG]	-0.714	-0.672	-0.873	-0.22
UCAUAACAGAUGCGCAAACAGGUUCAUCUAAGUGUGUGUGUUCUGUUAUUGA [SHAPE_invivo_SARS-CoV-2_Motif_383]	-0.657	-0.455	-0.196	1.78
GUGCUAAGCAC	-0.151	-0.435	-0.59	-1.24
UCUAUACAGAACUGGA [SHAPE_invivo_SARS-CoV-2_Motif_242]	1.18	-0.0262	0.79	-0.496

Sequence	pull-down binding Z-score [1]	pull-down binding Z-score [2]	pull-down binding Z-score (TO-N3 (biotin conjugate))	pull-down binding Z-score [3]
CUAACUGAGAAUAAAUAUUCUCAAUUAG	-0.985	-0.937	-1.59	-1.87
GGAGAUGAGGCGUUGCCUCCUCC [IAV_invivo_PA_3_Motif_24+IAV_invivo_PA_3_Motif_24]	-0.646	-0.663	-1.01	-0.275
AUGCCAACUAUUUUCUUUGCUGGCAU	-0.81	-0.637	-1.36	-1.13
GUGAAACAUUUGUCAC [SHAPE_invivo_SARS-CoV-2_Motif_46]	0.818	0.013	0.532	-0.394
ACACUCUACGUGU	-1.14	-0.979	-1.78	-1.93
UGUGUGAUAUCAGACA	-0.5	-0.703	-0.639	-0.597
ACGUGAGUCUUGUAAAACCUUCUUUUUACGUUUACUCUCGU	0.0863	0.0619	0.206	-0.213
UUAACGUGAGUCUUGUAAAACCUUCUUUUUACGUUUACUCUCGUGUUAA [DMSMaPseq_invitro_SARS-CoV-2_Motif_474]	-0.223	-0.0657	-0.275	-1.02
GUUUUCUACAAAGAAAAC	-0.676	-0.524	-1.09	-1.75
GCUUCCACAAGUGCUUUUGUGGAAACUGUGAAAGGUUUGGAUUAUAAAGCAUUCAAACAAAUUGUUGAAUCCUGUGGUAAUUUUAAAGUUACAAAAGGAAAAGC	-0.475	-0.339	-0.508	-0.348
ACCAUUGGUAGAUUUGCCAAUAGGU	-0.133	-0.848	-0.966	-1.45
GUUAUAAAUGGAGACAGGUGGUUUCUCAAUCGAUUUACCACAACUCUUAAUGAC	-0.728	0.00889	-0.772	-0.831
AGGUUGGUAUGCAAAAGUAUUCUACACUCCAGGGACCACCUGGUACUGGUAAGAGUCAUUUUGCUAUUGGCCU	-0.654	-0.203	-0.418	0.696
GGGUUGGGUUGGGUUGGGUUGGGUUGGGUUGGGUUGGGUU [G4_r(GGGUU)8]	8.9	10.2	7.46	5.93
CCUUACCCAGAUCCAUCAAGAAUCCUAGGGGCCGG	0.842	0.14	0.876	0.308
ACAGUCUGUACCGUCUGCGGUAUGUGGAAAGGUUAUGGCUGU	-0.239	-0.231	-0.273	0.213
CGAGUCUCUGAAACUCUACAGAGAUUCG [IAV_invivo_NS1_NEP_8_Motif_12+IAV_invivo_NS1_NEP_8_Motif_12]	-1	-0.606	-0.524	-0.636
GCGCUGCCAGAAACUGGCUAAGCGC [bulge-UA]	-0.669	-0.353	-0.911	-0.61
GUGGUAGUUAUACUAAUGACAAAGCUUGCCCAUUGAUUGCUGC [DMSMaPseq_invitro_SARS-CoV-2_Motif_161]	0.409	0.207	0.498	0.208
CUUAGCUGUCUUUGAUAAAAAUCUCUAUGACAAACUUGUUUCAAGCUUUUUGGAAAUGAAGAGUGAAAAGCAAGUUGAACAAAAGAUCGCUGAG [SHAPE_invivo_SARS-CoV-2_Motif_73]	0.216	0.0166	0.0191	0.552
AUUGACAUUAAUGGCAAUCUUCAUCCAGAUUCUGCCACUCUUGUUAGU [DMSMaPseq_invitro_SARS-CoV-2_Motif_73]	-0.785	-0.197	-0.723	-0.113
GGUUAUAAGAAACC	-0.083	-0.849	-0.351	-0.964
GAAUGCGUCAUCAUCUGAAGCAUUU	-0.994	-0.405	-1.1	-0.61

Sequence	pull-down binding Z-score [1]	pull-down binding Z-score [2]	pull-down binding Z-score (TO-N3 (biotin conjugate))	pull-down binding Z-score [3]
CUCUCAUCGAUCUCCAAGAACUUGGAAAGUAUGAGCAG [SHAPE_invitro_SARS-CoV-2_Motif_456]	-0.197	-0.286	-0.095	0.281
CUUAGUUUUAAG [DMSMaPseq_invitro_SARS-CoV-2_Motif_263]	-0.781	-0.268	-1.02	-1.26
AGUUCAAGAAAUUCAACU	-0.166	-0.224	-0.478	-0.672
GCUAAAUUGUUACAUAAACCUAUUGUUUGGCAUGUUAACAAUGC [SHAPE_invitro_SARS-CoV-2_Motif_124]	-0.783	-0.265	-0.96	-1.24
GAUCUAAAACCAGUC [DMSMaPseq_invitro_SARS-CoV-2_Motif_121]	-0.0402	0.0363	-0.0985	-0.546
CCUGGUCAUGCAGAUCUCAGUGCCAAGGAGGCACAGGAUGUAAUCAUGGAAGUUGUUUUCCCUAACGAAGUGGGAGCCAGG	-0.749	-0.23	-0.414	0.44
GAACUCUACUAAUGUCACUAUUGCAACCUACUGUACUGGUUCUAUACCUUGUAGUGUUUGUCUUAGUGGUUUAGAUUC [DMSMaPseq_invitro_SARS-CoV-2_Motif_135]	0.03	-0.164	-0.105	-0.471
AAGAGAAAGUCAACAUCAAUAUUGUUGGUGACUUUAAACUU	0.608	-0.0741	0.557	-0.494
CUUACUGACAAUGUAUACAUUAAAAAUGCAGACAUUGUGGAAG [DMSMaPseq_invitro_SARS-CoV-2_Motif_59]	-0.453	-0.18	-0.328	-0.455
AUGCCUUUUUACCUUUUGCUAUGGGUAUUAUUGCUAUGUCUGCUUUUGCAAUGAUGUUUGUCAAACAUAAGCAUGCAU [DMSMaPseq_invitro_SARS-CoV-2_Multi_36_ComplexLevel_1]	0.159	0.472	0.0122	-0.261
AGUCAGACAAAUCGCUCCAGGGCAAACUGGAAAGAUUGCUGAUU	0.0712	0.0858	0.0567	0.136
AGGUCAAAUCAAUGAUAUGAUUUUAUCU [SHAPE_invitro_SARS-CoV-2_Motif_388]	-0.87	-0.624	-1.31	-1.35
AUUGUUACAUAAACCUAUUGUUUGGCAUGUUAACAAU	-0.915	-0.197	-0.895	-0.663
GCUAUAUGAUGC [IAV_invivo_PA_3_Motif_14+IAV_invivo_PA_3_Motif_14]	-0.0014	-0.212	-0.106	-0.634
UGGUUUUGCUAAAUUCCUAAAAACUA [DMSMaPseq_invitro_SARS-CoV-2_Motif_244]	-0.45	-0.0765	-0.632	-0.866
UCUCUAUGACAAACUUGUUUCAAGCUUUUUGGAAAUGAAGAGUGAAAAGCAAGUUGAACAAAAGAUCGCUGAGA [SHAPE_invitro_SARS-CoV-2_Motif_69]	-0.0465	-0.507	-0.0892	0.388
GCUAACAAACAUGCUGAUUUUGACACAUGGUUUAGCCAGCGUGGUGGUAGU	-0.205	0.101	0.157	0.519
CAUGUCAUGUCUAAACAUACUGACUUUUCAAGUG [SHAPE_invitro_SARS-CoV-2_Motif_169]	-0.283	-0.276	-0.41	-0.539
GACAUUUUAUCUUACUAAUGAUGUUUCUUUUUUAGCACAUAUUCAGUGGAUGGUUAUGUU [DMSMaPseq_invitro_SARS-CoV-2_Motif_175]	0.0838	0.317	0.455	0.0287
UAAUAACGCUACUAAUGUUGUUAUUA	-0.595	-0.411	-1.02	-1.73
UGGGCACACUUUCUUAUGAACAAUUUAAGAAAGGUGUUCA [SHAPE_invivo_SARS-CoV-2_Motif_116]	-0.385	-0.384	-0.52	-0.779
GUACAUGGGCACACUUUCUUAUGAACAAUUUAAGAAAGGUGUUCAGAUACCUUGUAC [SHAPE_invitro_SARS-CoV-2_Motif_110]	-0.767	-0.44	-1.06	-1.11
